Data on five molecules can be found in paper PMC7905918, “20E-mediated regulation of BmKr-h1 by BmKRP promotes oocyte maturation”.

Conditions in all cases: protein: ivt; label: 5' biotin; blunt
Data set [1] has as its target T1, BmKRP (Bombyx mori, UniProt A0A8R1WHU4 1-518).
T1 sequence: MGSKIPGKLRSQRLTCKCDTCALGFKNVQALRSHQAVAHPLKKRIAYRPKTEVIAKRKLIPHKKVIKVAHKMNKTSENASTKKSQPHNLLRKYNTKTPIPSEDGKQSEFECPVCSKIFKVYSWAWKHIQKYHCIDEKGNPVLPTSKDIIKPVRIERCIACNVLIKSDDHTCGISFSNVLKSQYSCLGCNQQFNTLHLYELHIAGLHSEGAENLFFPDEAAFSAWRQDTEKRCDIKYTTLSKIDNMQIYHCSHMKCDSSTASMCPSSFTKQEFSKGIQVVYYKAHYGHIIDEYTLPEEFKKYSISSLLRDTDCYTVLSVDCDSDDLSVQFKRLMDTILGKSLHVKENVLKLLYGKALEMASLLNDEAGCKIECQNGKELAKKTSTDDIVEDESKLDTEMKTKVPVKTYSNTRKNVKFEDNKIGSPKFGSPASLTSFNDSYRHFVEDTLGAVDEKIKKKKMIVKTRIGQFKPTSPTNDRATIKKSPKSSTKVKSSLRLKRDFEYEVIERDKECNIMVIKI
In words: EMSA; EMSA: 1x binding buffer (LightShift kit), 2.5% glycerol, 0.05% NP-40, 50 mM KCl, 5 mM MgCl2, 4 mM EDTA, 1 ug poly dI-dC, 20 fmol probe, room temperature 20 min; pull-down: 10 mM HEPES pH 7.6, 100 mM K-glutamate, 80 mM KCl, 10 mM Mg acetate, 4 C. A general note: In EMSA bound probe runs differently from free probe, usually more slowly.

Data set [2] deals with T1, BmKRP. In words: EMSA; competed by 50-fold unlabeled probe; EMSA: 1x binding buffer (LightShift kit), 2.5% glycerol, 0.05% NP-40, 50 mM KCl, 5 mM MgCl2, 4 mM EDTA, 1 ug poly dI-dC, 20 fmol probe, room temperature 20 min; pull-down: 10 mM HEPES pH 7.6, 100 mM K-glutamate, 80 mM KCl, 10 mM Mg acetate, 4 C.
The target in data set [3] is T1, BmKRP. In words: EMSA; Discussion calls it weaker (citing Fig. 3f); EMSA: 1x binding buffer (LightShift kit), 2.5% glycerol, 0.05% NP-40, 50 mM KCl, 5 mM MgCl2, 4 mM EDTA, 1 ug poly dI-dC, 20 fmol probe, room temperature 20 min; pull-down: 10 mM HEPES pH 7.6, 100 mM K-glutamate, 80 mM KCl, 10 mM Mg acetate, 4 C.

B1: -248~-217 mutant probe 5 (both flanks mutated) (dsDNA)
DNA 1: GGCGGCCCACATCCGAAAACGACCGCCGACGG
DNA 2: CCGTCGGCGGTCGTTTTCGGATGTGGGCCGCC
Regarding B1, the binding result in data set [1] is “no binding”.

B2: -248~-217 mutant probe 4 (central … region mutated) (dsDNA)
DNA 1: TTATTAACCACGAATCCCCATAAATAATCATT
DNA 2: AATGATTATTTATGGGGATTCGTGGTTAATAA
In the case of B2, the binding result in data set [1] was “binds”.

B3: BmKr-h1 20E CRE -248~-217 WT probe (dsDNA)
DNA 1: TTATTAAAACATCCGAAAACGCAATAATCATT
DNA 2: AATGATTATTGCGTTTTCGGATGTTTTAATAA
Consider B3, for which, in data set [2], the binding result is “binds”.

B4: -248~-217 mutant probe 6 (left flank mutated) (dsDNA)
DNA 1: GGCGGCCCACATCCGAAAACGCAATAATCATT
DNA 2: AATGATTATTGCGTTTTCGGATGTGGGCCGCC
In the case of B4, the binding result in data set [3] is recorded as “binds”.

B5: -248~-217 mutant probe 7 (right flank mutated) (dsDNA)
DNA 1: TTATTAAAACATCCGAAAACGACCGCCGACGG
DNA 2: CCGTCGGCGGTCGTTTTCGGATGTTTTAATAA
Consider B5, for which, in data set [3], the binding result is given as “binds”.
